Measurements published in PMC11739670.
pKd: −log10 of the molar value. Several values for one entry are separate records, joined by “and”; a condition that tells them apart may be missing. Equal entries are not always repeated.

How the values were obtained:
[1] = biological target: MHCI-related protein 1 (MR1) with β-2 microglobulin, biotinylated, loaded with model ligands (UniProt Q95460); experiment: SPR; biotinylated ligands (pMHCI, MR1, CD1) captured on streptavidin coupled to a CM5 chip; serial dilution of each CD8-Fc fusion injected; steady-state responses, 1:1 Langmuir fit; BIAcore T200, 25°C, PBS with 0.005% Tween 20
[2] = biological target: MHCI-related protein 1 (MR1) with β2m, loaded with 5-(2-oxopropylideneamino)-6-d-ribitylaminouracil (human) (UniProt Q95460); experiment: SPR; BIAcore T200, CM5 chip with streptavidin; biotinylated pMHCI, MR1 or CD1 captured; serial dilution of CD8-Fc fusion injected; 25°C, PBS with 0.005% Tween 20; steady-state responses, 1:1 Langmuir fit
[3] = biological target: MHCI-related protein 1 (MR1) with β2m, loaded with 6-formylpterin (human) (UniProt Q95460); experiment: as above
[4] = biological target: MHCI-related protein 1 (MR1) with β2m, loaded with 5-formyl salicylic acid (human) (UniProt Q95460); experiment: as above
[5] = biological target: HLA-A*24:02 peptide-MHC class I (biotinylated pMHCI); experiment: SPR; biotinylated ligands (pMHCI, MR1, CD1) captured on streptavidin coupled to a CM5 chip; serial dilution of each CD8-Fc fusion injected; steady-state responses, 1:1 Langmuir fit; BIAcore T200, 25°C, PBS with 0.005% Tween 20
[6] = biological target: HLA-A*03:01 with peptide […]; experiment: SPR

Substance: soluble human CD8αα-Fc homodimer (from UniProt P01732 22-182) (Fc fusion)
- pKd [1]: 3.60
- pKd [2]: 3.61 and 3.56
- pKd [3]: 3.61 and 3.55
- pKd [4]: 3.65 and 3.63

Substance: soluble human CD8αβ-Fc heterodimer (from UniProt P01732 22-182; P10966 22-170) (Fc fusion)
- pKd [5]: 3.64
- pKd [6]: 3.90
